Source: patent publication US20210388081A1 (Memorial Sloan Kettering, published 2021)

Key:
[1] = target: T1, FcRL6, overexpressed on 3T3 cells (UniProt Q6DN72 20-434, limits assumed); experiment: phage clone on 3T3-FcRL6 cells
T1 construct: whole, on cells
T1 sequence (looked up): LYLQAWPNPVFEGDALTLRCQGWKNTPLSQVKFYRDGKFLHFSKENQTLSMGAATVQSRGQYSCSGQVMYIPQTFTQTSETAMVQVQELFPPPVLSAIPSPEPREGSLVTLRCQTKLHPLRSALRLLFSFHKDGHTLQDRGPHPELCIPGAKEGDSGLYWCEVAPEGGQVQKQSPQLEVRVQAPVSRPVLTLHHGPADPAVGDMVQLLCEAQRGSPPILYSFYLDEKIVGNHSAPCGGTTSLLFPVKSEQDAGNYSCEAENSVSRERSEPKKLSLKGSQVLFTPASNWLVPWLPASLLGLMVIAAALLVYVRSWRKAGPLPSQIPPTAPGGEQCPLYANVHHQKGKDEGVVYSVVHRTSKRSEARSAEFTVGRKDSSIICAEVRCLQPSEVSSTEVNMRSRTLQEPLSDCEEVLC

[2] = target: T2, FcRL4, overexpressed on 3T3 cells (UniProt Q96PJ5 20-515, limits assumed); experiment: phage clone on 3T3-FcRL4 cells
T2 construct: whole, on cells
T2 sequence (looked up): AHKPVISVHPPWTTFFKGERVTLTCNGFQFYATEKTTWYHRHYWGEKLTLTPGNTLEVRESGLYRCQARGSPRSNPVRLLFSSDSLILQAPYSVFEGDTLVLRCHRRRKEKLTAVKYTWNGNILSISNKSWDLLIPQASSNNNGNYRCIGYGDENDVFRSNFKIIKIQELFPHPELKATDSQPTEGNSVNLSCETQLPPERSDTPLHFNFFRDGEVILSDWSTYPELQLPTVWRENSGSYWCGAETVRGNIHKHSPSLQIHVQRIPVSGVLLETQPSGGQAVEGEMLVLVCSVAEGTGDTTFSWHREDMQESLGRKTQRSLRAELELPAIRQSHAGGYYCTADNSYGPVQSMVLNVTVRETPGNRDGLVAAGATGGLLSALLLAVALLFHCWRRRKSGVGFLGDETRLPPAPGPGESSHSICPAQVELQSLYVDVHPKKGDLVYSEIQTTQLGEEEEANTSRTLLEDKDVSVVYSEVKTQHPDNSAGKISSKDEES

[3] = target: SLAMF9 protein (UniProt Q96A28 19-236, limits assumed); experiment: phage clone on SLAMF9 protein
Sequence of SLAMF9 protein (Q96A28 19-236 limits assumed): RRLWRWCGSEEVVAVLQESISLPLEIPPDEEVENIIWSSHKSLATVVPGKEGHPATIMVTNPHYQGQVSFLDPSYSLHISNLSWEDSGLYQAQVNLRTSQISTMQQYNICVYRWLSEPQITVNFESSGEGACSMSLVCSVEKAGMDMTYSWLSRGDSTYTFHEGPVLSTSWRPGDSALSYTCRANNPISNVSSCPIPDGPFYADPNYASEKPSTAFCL

Measured: binding result

B1: ET200-116 (scFv)
scFv: QPVLTQPPSVSVSPGQTAAIPCSGDKLGDKFASWYQQKPGQSPVLVIYQDTKRPSGIPERFSGSNSGNTATLTISGTQAMDEADYYCQTWASGIVVFGGGTKLTVLGSRGGGGSGGGGSGGGGSLEMAQVQLQQSGPGLVKPSQTLSLTCAISGDSVSSNSAAWNWIRQSPSRGLEWLGRTYYRSKWYNDYAVSVKSRITINPDTSKNQFSLQLNSVTPEDTAVYYCARERSGWKGFDYWGQGTLVTVSSTSGQAGQHHHHHHGAYPYDVPDYAS
notes: screened as phage clone; entry is VL-linker-VH-His tag-HA tag
no binding: all assays above

B2: ET200-103 (scFv)
scFv: QAVLTQPHSVSESPGKTVTISCTRSSGSIASNYVQWYQQRPGSAPTTVIYEDNQRPSGVPDRFSGSIDSSSNSASLTISGLKTEDEADYYCQSYDSTITVFGGGTKLTVLGSRGGGGSGGGGSGGGGSLEMAQVQLVQSGAEVKKPGSSVKVSCKASGGTFSSYAISWVRQAPGQGLEWMGGIIPIFGTANYAQKFQGRVTITADESTSTAYMELSSLRSEDTAVYYCAGEGYYDSSGYSNGDAFDIWGQGTMVTVSSTSGQAGQHHHHHHGAYPYDVPDYAS
notes: as for B1
no binding: all assays above

B3: ET200-109 (scFv)
scFv: LPVLTQPPSASATPGQRVTISCSGTTSNIGSNTVHWYQQLPGTAPKLLIYNNNQRPSGVPDRFSGSKSGTSASLAISGLRSEDEATYSCATWDDSLSGVVFGGGTKLTVLGSRGGGGSGGGGSGGGGSLEMAEVQLVQSGAEVKKPGSSVKVSCKASGGTFSSYAISWVRQAPGQGLEWMGGIIPIFGTANYAQKFQGRVTITADESTSTAYMELSSLRSEDTAVYYCARDPAYGDYEYDAFDIWGQGTMVTVSSTSGQAGQHHHHHHGAYPYDVPDYAS
notes: as for B1
no binding: all assays above

B4: ET200-107 (scFv)
scFv: QSVVTQPPSVSAAPGEKVTISCSGSNFNVGNNDVSWYQQLPGAAPKLLIYDNNKRPSGIPDRFSGSKSGTSATLDITGLHSDDEADYYCGTWDSSLNTGGVFGTGTKVTVLGSRGGGGSGGGGSGGGGSLEMAEVQLVQSGAEVKKPGASVKVSCKASGYTFTSYTISWVRQAPGQGLEWMGWISTYNGLTNYAQNLQGRVTMTTDTFTTTAYMELRSLRSDDTAVYYCVREGSPDYGDFASFDYWGQGTLVTVSSTSGQAGQHHHHHHGAYPYDVPDYAS
notes: as for B1
no binding: all assays above

B5: ET200-108 (scFv)
scFv: QSVLTQPPSVSAPPGQKVTISCSGSSSNIGNNYVSWYQQFPGTAPKLLIYDNNKRPSGISDRFSGSKSGTSATLGIAGLQTGDEADYYCGTWDTSLSGFYVFGSGTKVTVLGSRGGGGSGGGGSGGGGSLEMAEVQLVQSGAEVKKPGASVKVSCKASGYTFTSYTISWVRQAPGQGLEWMGWISTYNGLTNYAQNLQGRVTMTTDTFTTTAYMELRSLRSDDTAVYYCVREGSPDYGDFASFDYWGQGTLVTVSSTSGQAGQHHHHHHGAYPYDVPDYAS
notes: as for B1
no binding: all assays above

B6: ET200-112 (scFv)
scFv: QAVLTQPPSASGTPGQRVTISCSGSSSNIGSNTVNWYQQLPGTAPKLLMYSNDQRPSGVPDRFSGSKSGTSASLAISGLQSEDEADYYCAAWDDSLNGYVFAAGTQLTVLSSRGGGGSGGGGSGGGGSLEMAQVQLQQWGAGLLKPSETLSLTCAVYGGSFSGYYWSWIRQPPGKGLEWIGEINHSGSTNYNPSLKSRVTISVDTSKNQFSLKLSSVTAADTAVYYCAREGLDAFDIWGQGTMVTVSSTSGQAGQHHHHHHGAYPYDVPDYAS
notes: as for B1
no binding: all assays above

B7: ET200-007 (scFv)
scFv: SYVLTQPLSVSVAPGKTARITCGGNNIGSKTVHWYQQKPGQAPVLVIYYDSDRPSGIPERFSGSNSGNTATLTISRVEAGDEADYYCQVWDSSSDHRVFGGGTKLTVLGSRGGGGSGGGGSGGGGSLEMAQVQLQESGPGLVKPSETLSLTCNVSGYSISSGYFWGWIRQPPGKGLEWIGSIYHSRSTYYNPSLKSRVTISVDTSKNQFSLKLNSVTAADTAVYYCARGYGYFDYWGQGTLVTVSSTSGQAGQHHHHHHGAYPYDVPDYAS
notes: as for B1
no binding: all assays above

B8: ET200-106 (scFv)
scFv: SYELTQPPAASGTPGQRVTISCSGGVSNIGSGALNWYQQLPGTAPKLLIYSYNQRPSGVSDRFSGSRSATSASLAISGLQSEDEADYYCATWDDSVNGWVFGGGTKLTVLGSRGGGGSGGGGSGGGGSLEMAEVQLVESGAEVKKPGDSVKVSCKPSGYNFLNYGINWVRQAPGQGLEWMGWISTYTGNTNYAQKLQGRVTFTTDTSTSTAYMEMRSLRSDDTAVYYCARQQGGGWYDVWGQGTLVTVSSTSGQAGQHHHHHHGAYPYDVPDYAS
notes: as for B1
no binding: all assays above

B9: ET200-118 (scFv)
scFv: QAVLTQPASVSGSPGQSITISCTGTSSDVGGYNYVSWYQQHPGKAPKLMIYEVSNRPSGVSNRFSGSKSGNTASLTISGLQAEDEADYYCSSYTSSSTPYVFGAGTKVTVLGSRGGGGSGGGGSGGGGSLEMAEVQLVESGGGLVQPGRSLRLSCAASGFTFDDYAMHWVRQAPGKGLEWVSGISWNSGSIGYADSVKGRFTISRDNAKNSLYLQMNSLRAEDTALYYCAKARWTAVASDHHFDYWGQGTLVTVSSTSGQAGQHHHHHHGAYPYDVPDYAS
notes: as for B1
no binding: all assays above

B10: ET200-113 (scFv)
scFv: QSVVTQPPSVSAAPGQKVTISCSGSSSNIGNNYVSWYQQLPGTAPKLLIYDNNKRPSGIPDRFSGSKSGTSATLGITGLQTGDEADYYCGTWDSSLSAAYVFGTGTKVTVLGSRGGGGSGGGGSGGGGSLEMAQVQLVQSGAEVKKPGASVKVSCKASGYSFTSYTISWVRQAPGQGLEWMGWVSTYNGLRNYAQNLQGRVTMTTDTLTTTAYMELRSLRSDDTAVYYCVREGSPDYGDFAAFDYWGQGTLVTVSSTSGQAGQHHHHHHGAYPYDVPDYAS
notes: as for B1
no binding: all assays above

B11: ET200-110 (scFv)
scFv: QSVLTQPPSASGTPGQRVTISCSGSSSNIGTNGVNWFQQFPGTAPKLLIYTNDQRPSGVPDRFSGSKSGTSASLAISGLQSADEADYYCAVWDHSLNGPVFGGGTKLTVLGSRGGGGSGGGGSGGGGSLEMAQVQLVQSGAEVKKPGSSVKVSCKASGGTFSSYAISWVRQAPGQGLEWMGGIIPIFGTANYAQKFQGRVTITADESTSTAYMELSSLRSEDTAVYYCARGAGFDAFDIWGQGTMVTVSSTSGQAGQHHHHHHGAYPYDVPDYAS
notes: as for B1
no binding: all assays above

B12: ET200-102 (scFv)
scFv: QSVVTQPPSVSAAPGQKVTISCSGSSSNIGNNYVSWYQQLPGTAPKLLIYDNNKRPSGIPDRFSGSKSGTSATLGITGLQTGDEADYYCGTWDSSLSAYVFGTGTKVTVLGSRGGGGSGGGGSGGGGSLEMAQVQLVQSGAEVKKPGASVKVSCKASGYTFTNYALHWVRQAPGQGLEWMAWINGGNGNTKYSQNFQGRVTITRDTSASTAYMELSSLRSEDTAVYYCAKPEETAGTIHFDYWGQGTPVTVSSTSGQAGQHHHHHHGAYPYDVPDYAS
notes: as for B1
no binding: all assays above

B13: ET200-115 (scFv)
scFv: QSVLTQPPSVSGAPGQRVTISCTGSSSNIGARYDVHWYQQLPGTAPRLLISANYDRPSGVPDRFSGSKSGTSASLAITGLQAEDEADYYCQSYDSSVSAWVFGGGTKVTVLGSRGGGGSGGGGSGGGGSLEMAEVQLVQSGAEVKEPGASVRISCQASGYNFISYYMHWVRQAPGQGLEWMGTINPGSGETDYSQKLQGRVTMTRDPSTGTFDMGLSSLTSGDTAVYYCATGLIRGASDAFNIWGRGTMVTVSSTSGQAGQHHHHHHGAYPYDVPDYAS
notes: as for B1
no binding: all assays above

B14: ET200-105 (scFv)
scFv: SYVLTQPPSVSVSPGQTASITCSGDRLTNKYVSWYQQKPGQSPVLVIYEDAKRPSGIPARFSGSNSGNTATLTISGTQAMDESEYYCQAWDSSVVVFGGGTKLTVLGSRGGGGSGGGGSGGGGSLEMAEVQLVESGGGLVQPGRSLRLSCAASGFTFDDYAMHWVRQAPGKGLEWVSGISWNSGSIGYADSVKGRFTISRDNAKNSLYLQMNSLRDEDTALYYCAKDRGGGVIVKDAFDIWGQGTMVTVSSTSGQAGQHHHHHHGAYPYDVPDYAS
notes: as for B1
no binding: all assays above
